In the supplement of paper PMC9112550, “Optimization of the antimicrobial peptide Bac7 by deep mutational scanning” (BMC Biology, 2022):

Each sequence was assayed on Escherichia coli TOP10 (assay: shrunken log2 fold change of peptide-encoding DNA abundance (4.5 h post-induction vs induction); higher = less antimicrobial activity (less host growth inhibition)). Conditions: time post-induction: 4.5 h; library: site-saturation at positions 5, 18, 19, 20.
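Also: peptides expressed intracellularly from a pBAD plasmid library in pooled LB shake-flask culture, induced with 0.3% L-arabinose, DNA abundance read by NGS, three biological replicates, DESeq2 with apeglm shrinkage.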

For RRIRRRPPRLPRPRPRPINVPRP, which “shrunken log2 fold change” value is on record?
Its value is -0.326.

With RRIRPRPPRLPRPRPRPNWCPRP as the sequence, how does the “shrunken log2 fold change” value read?
Its value is 0.0235.

Which “shrunken log2 fold change” value does the source give for RRIRYRPPRLPRPRPRPAPNPRP here?
Its value is -0.01.

With RRIRERPPRLPRPRPRPCLEPRP as the sequence, how does the “shrunken log2 fold change” value read?
Its value is -0.116.

For RRIRWRPPRLPRPRPRPRMLPRP, which “shrunken log2 fold change” value is on record?
The value was 0.281.

Which “shrunken log2 fold change” value does the source give for RRIRMRPPRLPRPRPRPDWHPRP here?
Its value is -0.136.

For RRIRLRPPRLPRPRPRPTTIPRP, which “shrunken log2 fold change” value is on record?
The value was 0.255.

How did the “shrunken log2 fold change” value turn out when RRIRVRPPRLPRPRPRPFLNPRP was run?
The value was -0.148.

RRIRMRPPRLPRPRPRPCMAPRP was tested. Which “shrunken log2 fold change” value did it give?
Its value is 0.59.

Which “shrunken log2 fold change” value does the source give for RRIRVRPPRLPRPRPRPKHWPRP here?
The value was 0.151.

Which “shrunken log2 fold change” value does the source give for RRIRCRPPRLPRPRPRPIERPRP here?
Its value is 0.0355.

Which “shrunken log2 fold change” value does the source give for RRIRCRPPRLPRPRPRPGYTPRP here?
Its value is 0.00337.

With RRIRHRPPRLPRPRPRPIYPPRP as the sequence, how does the “shrunken log2 fold change” value read?
Its value is -0.158.

How did the “shrunken log2 fold change” value turn out when RRIRPRPPRLPRPRPRPLCYPRP was run?
Its value is -0.488.

With RRIRHRPPRLPRPRPRPSPAPRP as the sequence, how does the “shrunken log2 fold change” value read?
The value was 0.108.

How did the “shrunken log2 fold change” value turn out when RRIRSRPPRLPRPRPRPQVQPRP was run?
Its value is 0.374.

How did the “shrunken log2 fold change” value turn out when RRIRNRPPRLPRPRPRPALNPRP was run?
The value was 0.0657.

With RRIRTRPPRLPRPRPRPAPEPRP as the sequence, how does the “shrunken log2 fold change” value read?
The value was 0.24.

Which “shrunken log2 fold change” value does the source give for RRIRKRPPRLPRPRPRPQTAPRP here?
The value was 0.385.

With RRIRHRPPRLPRPRPRPAGMPRP as the sequence, how does the “shrunken log2 fold change” value read?
The value was -0.411.

Which “shrunken log2 fold change” value does the source give for RRIRMRPPRLPRPRPRPFISPRP here?
The value was -0.4.

With RRIRMRPPRLPRPRPRPLTQPRP as the sequence, how does the “shrunken log2 fold change” value read?
Its value is 0.175.

For RRIRHRPPRLPRPRPRPKKTPRP, which “shrunken log2 fold change” value is on record?
Its value is 0.0065.

Which “shrunken log2 fold change” value does the source give for RRIRLRPPRLPRPRPRPVLNPRP here?
The value was -0.325.

How did the “shrunken log2 fold change” value turn out when RRIRVRPPRLPRPRPRPEGIPRP was run?
Its value is -0.0615.

For RRIRWRPPRLPRPRPRPMYAPRP, which “shrunken log2 fold change” value is on record?
The value was 0.325.

For RRIRPRPPRLPRPRPRPCKRPRP, which “shrunken log2 fold change” value is on record?
Its value is -0.0941.

RRIRKRPPRLPRPRPRPMVQPRP was tested. Which “shrunken log2 fold change” value did it give?
The value was 0.208.

With RRIRTRPPRLPRPRPRPYMPPRP as the sequence, how does the “shrunken log2 fold change” value read?
The value was -1.27.

For RRIRARPPRLPRPRPRPYLMPRP, which “shrunken log2 fold change” value is on record?
The value was -0.648.

Which “shrunken log2 fold change” value does the source give for RRIRCRPPRLPRPRPRPTMPPRP here?
The value was -0.281.

How did the “shrunken log2 fold change” value turn out when RRIRDRPPRLPRPRPRPACLPRP was run?
The value was 0.723.

With RRIRWRPPRLPRPRPRPSGEPRP as the sequence, how does the “shrunken log2 fold change” value read?
The value was 0.138.

With RRIRRRPPRLPRPRPRPMLDPRP as the sequence, how does the “shrunken log2 fold change” value read?
The value was 0.116.

With RRIRLRPPRLPRPRPRPMIPPRP as the sequence, how does the “shrunken log2 fold change” value read?
The value was -0.0974.

RRIRSRPPRLPRPRPRPQQKPRP was tested. Which “shrunken log2 fold change” value did it give?
The value was -0.138.

RRIRCRPPRLPRPRPRPHCTPRP was tested. Which “shrunken log2 fold change” value did it give?
Its value is -0.88.

With RRIRQRPPRLPRPRPRPCNVPRP as the sequence, how does the “shrunken log2 fold change” value read?
Its value is -0.0261.

Which “shrunken log2 fold change” value does the source give for RRIRYRPPRLPRPRPRPGMIPRP here?
The value was -0.252.

For RRIRNRPPRLPRPRPRPTTDPRP, which “shrunken log2 fold change” value is on record?
Its value is -0.199.

RRIRSRPPRLPRPRPRPGLTPRP was tested. Which “shrunken log2 fold change” value did it give?
The value was 0.264.

How did the “shrunken log2 fold change” value turn out when RRIRMRPPRLPRPRPRPWCKPRP was run?
The value was 0.0317.

How did the “shrunken log2 fold change” value turn out when RRIRMRPPRLPRPRPRPDNSPRP was run?
Its value is -0.071.

How did the “shrunken log2 fold change” value turn out when RRIRMRPPRLPRPRPRPYEMPRP was run?
The value was 0.0693.

Which “shrunken log2 fold change” value does the source give for RRIRPRPPRLPRPRPRPWWIPRP here?
The value was -0.243.

With RRIRPRPPRLPRPRPRPFKVPRP as the sequence, how does the “shrunken log2 fold change” value read?
The value was -0.0681.

Which “shrunken log2 fold change” value does the source give for RRIRFRPPRLPRPRPRPGRFPRP here?
The value was -0.223.

RRIRMRPPRLPRPRPRPMVFPRP was tested. Which “shrunken log2 fold change” value did it give?
Its value is 0.0369.

With RRIRTRPPRLPRPRPRPHFFPRP as the sequence, how does the “shrunken log2 fold change” value read?
The value was -0.161.

How did the “shrunken log2 fold change” value turn out when RRIRTRPPRLPRPRPRPVCIPRP was run?
The value was -0.195.

RRIRSRPPRLPRPRPRPPYCPRP was tested. Which “shrunken log2 fold change” value did it give?
The value was -0.031.

For RRIRNRPPRLPRPRPRPHTLPRP, which “shrunken log2 fold change” value is on record?
Its value is -0.39.

Which “shrunken log2 fold change” value does the source give for RRIRRRPPRLPRPRPRPMMCPRP here?
Its value is 0.102.

RRIRPRPPRLPRPRPRPMNWPRP was tested. Which “shrunken log2 fold change” value did it give?
The value was -0.0482.

How did the “shrunken log2 fold change” value turn out when RRIRARPPRLPRPRPRPFHTPRP was run?
Its value is -0.0492.

RRIRARPPRLPRPRPRPWHGPRP was tested. Which “shrunken log2 fold change” value did it give?
Its value is 0.0697.

For RRIRHRPPRLPRPRPRPDKSPRP, which “shrunken log2 fold change” value is on record?
The value was -0.276.

For RRIRDRPPRLPRPRPRPSWQPRP, which “shrunken log2 fold change” value is on record?
Its value is 0.321.

How did the “shrunken log2 fold change” value turn out when RRIRRRPPRLPRPRPRPEEHPRP was run?
Its value is 0.107.

RRIRHRPPRLPRPRPRPRTQPRP was tested. Which “shrunken log2 fold change” value did it give?
The value was 0.0696.

RRIRHRPPRLPRPRPRPGADPRP was tested. Which “shrunken log2 fold change” value did it give?
The value was 0.255.

For RRIRVRPPRLPRPRPRPACCPRP, which “shrunken log2 fold change” value is on record?
The value was 0.161.

How did the “shrunken log2 fold change” value turn out when RRIRDRPPRLPRPRPRPTHRPRP was run?
Its value is 0.0815.

How did the “shrunken log2 fold change” value turn out when RRIRIRPPRLPRPRPRPHASPRP was run?
Its value is -0.012.

Which “shrunken log2 fold change” value does the source give for RRIRPRPPRLPRPRPRPRYDPRP here?
Its value is 0.0231.

With RRIRFRPPRLPRPRPRPVNSPRP as the sequence, how does the “shrunken log2 fold change” value read?
Its value is -0.154.

RRIRDRPPRLPRPRPRPYKQPRP was tested. Which “shrunken log2 fold change” value did it give?
Its value is -0.0404.

Which “shrunken log2 fold change” value does the source give for RRIRWRPPRLPRPRPRPVGWPRP here?
The value was 1.13.

With RRIRGRPPRLPRPRPRPLTFPRP as the sequence, how does the “shrunken log2 fold change” value read?
The value was 0.077.

For RRIRVRPPRLPRPRPRPALNPRP, which “shrunken log2 fold change” value is on record?
Its value is -0.142.

RRIRGRPPRLPRPRPRPMGVPRP was tested. Which “shrunken log2 fold change” value did it give?
The value was 0.00855.

Which “shrunken log2 fold change” value does the source give for RRIRTRPPRLPRPRPRPPLPPRP here?
Its value is 0.33.

Which “shrunken log2 fold change” value does the source give for RRIRYRPPRLPRPRPRPQGSPRP here?
The value was -0.19.

With RRIRWRPPRLPRPRPRPNAYPRP as the sequence, how does the “shrunken log2 fold change” value read?
Its value is -0.214.

Which “shrunken log2 fold change” value does the source give for RRIRVRPPRLPRPRPRPPLWPRP here?
Its value is 0.646.
